Results published in publication PMC8428401.

Target: AAVhum.8 capsid (adeno-associated virus 8 (nonhuman primate isolate)) (UniProt Q8JQF8)
Test: cryo-EM structure; purified AAVhum.8 vectors vitrified on Quantifoil grids; Titan Krios 300 kV; capsid reconstructed in cisTEM; 60-mer VP3 model refined against the map

AAVhum.8 capsid (from UniProt Q8JQF8 218-738) (complex)
stoichiometry N: 60
